T1: Fc Receptor-like 5 (FcRL5), full length, overexpressed on 3T3 or Raji cells (human, UniProt Q96RD9 16-977)
T1 construct: also called 3T3-FcRL5
T1 sequence: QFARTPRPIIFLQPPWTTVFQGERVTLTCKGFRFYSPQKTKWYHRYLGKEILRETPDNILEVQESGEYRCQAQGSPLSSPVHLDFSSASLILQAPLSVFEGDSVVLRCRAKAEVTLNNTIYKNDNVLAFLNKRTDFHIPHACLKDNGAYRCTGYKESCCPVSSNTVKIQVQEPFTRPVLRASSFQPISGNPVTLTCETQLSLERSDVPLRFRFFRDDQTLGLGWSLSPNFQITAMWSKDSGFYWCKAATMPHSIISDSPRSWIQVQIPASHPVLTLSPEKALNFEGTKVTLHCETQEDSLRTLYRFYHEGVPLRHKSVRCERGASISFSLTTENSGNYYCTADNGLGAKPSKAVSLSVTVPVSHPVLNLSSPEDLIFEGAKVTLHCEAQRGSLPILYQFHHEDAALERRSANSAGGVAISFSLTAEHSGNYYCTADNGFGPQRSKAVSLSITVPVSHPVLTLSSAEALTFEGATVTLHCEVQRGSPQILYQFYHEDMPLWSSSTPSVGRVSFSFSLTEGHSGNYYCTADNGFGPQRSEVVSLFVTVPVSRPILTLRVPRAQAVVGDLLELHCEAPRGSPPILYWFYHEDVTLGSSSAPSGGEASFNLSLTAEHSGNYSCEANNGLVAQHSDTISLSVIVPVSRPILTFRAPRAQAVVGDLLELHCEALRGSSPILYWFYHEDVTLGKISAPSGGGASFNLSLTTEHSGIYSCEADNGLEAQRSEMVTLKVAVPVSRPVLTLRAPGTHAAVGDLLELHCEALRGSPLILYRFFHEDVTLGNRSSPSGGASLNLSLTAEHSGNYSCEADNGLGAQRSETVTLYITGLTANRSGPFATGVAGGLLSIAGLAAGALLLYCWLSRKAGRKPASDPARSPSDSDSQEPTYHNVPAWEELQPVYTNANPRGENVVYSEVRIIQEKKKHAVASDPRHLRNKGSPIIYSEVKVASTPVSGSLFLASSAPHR

T2: FcRL4, overexpressed on 3T3 cells (UniProt Q96PJ5 20-515, limits assumed)
T2 construct: whole, on cells
T2 sequence (looked up): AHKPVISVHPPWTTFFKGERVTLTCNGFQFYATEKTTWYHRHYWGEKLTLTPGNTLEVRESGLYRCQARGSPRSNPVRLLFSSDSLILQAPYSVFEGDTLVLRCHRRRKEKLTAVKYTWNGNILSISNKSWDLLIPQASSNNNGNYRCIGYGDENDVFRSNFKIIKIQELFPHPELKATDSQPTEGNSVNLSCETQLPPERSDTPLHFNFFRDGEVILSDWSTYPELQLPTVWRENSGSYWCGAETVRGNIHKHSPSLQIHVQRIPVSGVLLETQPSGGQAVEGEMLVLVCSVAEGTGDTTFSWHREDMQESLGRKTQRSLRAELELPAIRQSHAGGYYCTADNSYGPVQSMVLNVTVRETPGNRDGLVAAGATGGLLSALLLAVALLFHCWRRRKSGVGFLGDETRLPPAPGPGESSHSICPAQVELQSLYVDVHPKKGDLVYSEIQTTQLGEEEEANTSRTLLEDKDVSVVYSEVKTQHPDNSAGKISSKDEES

T3: FcRL6, overexpressed on 3T3 cells (UniProt Q6DN72 20-434, limits assumed)
T3 construct: whole, on cells
T3 sequence (looked up): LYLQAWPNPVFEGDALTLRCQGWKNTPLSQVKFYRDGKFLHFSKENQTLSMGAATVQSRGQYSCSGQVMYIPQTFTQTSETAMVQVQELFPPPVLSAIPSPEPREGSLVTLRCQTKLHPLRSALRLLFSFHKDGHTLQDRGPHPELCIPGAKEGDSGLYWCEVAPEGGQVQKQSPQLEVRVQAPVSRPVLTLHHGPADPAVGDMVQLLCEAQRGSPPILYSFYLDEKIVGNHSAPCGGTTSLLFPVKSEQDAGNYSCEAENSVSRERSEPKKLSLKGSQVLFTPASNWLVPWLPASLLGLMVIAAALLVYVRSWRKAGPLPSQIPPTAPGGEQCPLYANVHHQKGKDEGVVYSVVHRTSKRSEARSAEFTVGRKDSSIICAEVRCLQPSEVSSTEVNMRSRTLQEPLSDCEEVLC

T4: FcRL2, overexpressed on 3T3 cells (UniProt Q96LA5 20-508, limits assumed)
T4 construct: whole, on cells
T4 sequence (looked up): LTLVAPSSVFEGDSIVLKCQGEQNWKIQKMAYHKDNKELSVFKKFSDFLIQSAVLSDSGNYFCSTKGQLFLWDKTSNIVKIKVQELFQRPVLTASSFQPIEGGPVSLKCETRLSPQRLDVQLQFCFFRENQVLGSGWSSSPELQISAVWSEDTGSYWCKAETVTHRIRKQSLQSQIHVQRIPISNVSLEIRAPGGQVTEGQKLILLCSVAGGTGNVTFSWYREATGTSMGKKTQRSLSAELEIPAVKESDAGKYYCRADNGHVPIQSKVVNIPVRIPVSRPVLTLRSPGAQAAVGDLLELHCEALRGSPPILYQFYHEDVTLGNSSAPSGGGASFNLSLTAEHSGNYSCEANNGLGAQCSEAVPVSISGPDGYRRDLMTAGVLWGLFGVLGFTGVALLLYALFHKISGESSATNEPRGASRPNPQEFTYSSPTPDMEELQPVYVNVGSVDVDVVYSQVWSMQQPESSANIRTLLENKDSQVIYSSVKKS

B1: ET200-109 (scFv)
scFv: LPVLTQPPSASATPGQRVTISCSGTTSNIGSNTVHWYQQLPGTAPKLLIYNNNQRPSGVPDRFSGSKSGTSASLAISGLRSEDEATYSCATWDDSLSGVVFGGGTKLTVLGSRGGGGSGGGGSGGGGSLEMAEVQLVQSGAEVKKPGSSVKVSCKASGGTFSSYAISWVRQAPGQGLEWMGGIIPIFGTANYAQKFQGRVTITADESTSTAYMELSSLRSEDTAVYYCARDPAYGDYEYDAFDIWGQGTMVTVSSTSGQAGQHHHHHHGAYPYDVPDYAS
notes: screened as phage clone; entry is VL-linker-VH-His tag-HA tag
B2: ET200-103 (scFv)
scFv: QAVLTQPHSVSESPGKTVTISCTRSSGSIASNYVQWYQQRPGSAPTTVIYEDNQRPSGVPDRFSGSIDSSSNSASLTISGLKTEDEADYYCQSYDSTITVFGGGTKLTVLGSRGGGGSGGGGSGGGGSLEMAQVQLVQSGAEVKKPGSSVKVSCKASGGTFSSYAISWVRQAPGQGLEWMGGIIPIFGTANYAQKFQGRVTITADESTSTAYMELSSLRSEDTAVYYCAGEGYYDSSGYSNGDAFDIWGQGTMVTVSSTSGQAGQHHHHHHGAYPYDVPDYAS
notes: as for B1
B3: ET200-107 (scFv)
scFv: QSVVTQPPSVSAAPGEKVTISCSGSNFNVGNNDVSWYQQLPGAAPKLLIYDNNKRPSGIPDRFSGSKSGTSATLDITGLHSDDEADYYCGTWDSSLNTGGVFGTGTKVTVLGSRGGGGSGGGGSGGGGSLEMAEVQLVQSGAEVKKPGASVKVSCKASGYTFTSYTISWVRQAPGQGLEWMGWISTYNGLTNYAQNLQGRVTMTTDTFTTTAYMELRSLRSDDTAVYYCVREGSPDYGDFASFDYWGQGTLVTVSSTSGQAGQHHHHHHGAYPYDVPDYAS
notes: as for B1
B4: ET200-108 (scFv)
scFv: QSVLTQPPSVSAPPGQKVTISCSGSSSNIGNNYVSWYQQFPGTAPKLLIYDNNKRPSGISDRFSGSKSGTSATLGIAGLQTGDEADYYCGTWDTSLSGFYVFGSGTKVTVLGSRGGGGSGGGGSGGGGSLEMAEVQLVQSGAEVKKPGASVKVSCKASGYTFTSYTISWVRQAPGQGLEWMGWISTYNGLTNYAQNLQGRVTMTTDTFTTTAYMELRSLRSDDTAVYYCVREGSPDYGDFASFDYWGQGTLVTVSSTSGQAGQHHHHHHGAYPYDVPDYAS
notes: as for B1
B5: ET200-106 (scFv)
scFv: SYELTQPPAASGTPGQRVTISCSGGVSNIGSGALNWYQQLPGTAPKLLIYSYNQRPSGVSDRFSGSRSATSASLAISGLQSEDEADYYCATWDDSVNGWVFGGGTKLTVLGSRGGGGSGGGGSGGGGSLEMAEVQLVESGAEVKKPGDSVKVSCKPSGYNFLNYGINWVRQAPGQGLEWMGWISTYTGNTNYAQKLQGRVTFTTDTSTSTAYMEMRSLRSDDTAVYYCARQQGGGWYDVWGQGTLVTVSSTSGQAGQHHHHHHGAYPYDVPDYAS
notes: as for B1
B6: ET200-007 (scFv)
scFv: SYVLTQPLSVSVAPGKTARITCGGNNIGSKTVHWYQQKPGQAPVLVIYYDSDRPSGIPERFSGSNSGNTATLTISRVEAGDEADYYCQVWDSSSDHRVFGGGTKLTVLGSRGGGGSGGGGSGGGGSLEMAQVQLQESGPGLVKPSETLSLTCNVSGYSISSGYFWGWIRQPPGKGLEWIGSIYHSRSTYYNPSLKSRVTISVDTSKNQFSLKLNSVTAADTAVYYCARGYGYFDYWGQGTLVTVSSTSGQAGQHHHHHHGAYPYDVPDYAS
notes: as for B1
B7: ET200-105 (scFv)
scFv: SYVLTQPPSVSVSPGQTASITCSGDRLTNKYVSWYQQKPGQSPVLVIYEDAKRPSGIPARFSGSNSGNTATLTISGTQAMDESEYYCQAWDSSVVVFGGGTKLTVLGSRGGGGSGGGGSGGGGSLEMAEVQLVESGGGLVQPGRSLRLSCAASGFTFDDYAMHWVRQAPGKGLEWVSGISWNSGSIGYADSVKGRFTISRDNAKNSLYLQMNSLRDEDTALYYCAKDRGGGVIVKDAFDIWGQGTMVTVSSTSGQAGQHHHHHHGAYPYDVPDYAS
notes: as for B1
B8: ET200-110 (scFv)
scFv: QSVLTQPPSASGTPGQRVTISCSGSSSNIGTNGVNWFQQFPGTAPKLLIYTNDQRPSGVPDRFSGSKSGTSASLAISGLQSADEADYYCAVWDHSLNGPVFGGGTKLTVLGSRGGGGSGGGGSGGGGSLEMAQVQLVQSGAEVKKPGSSVKVSCKASGGTFSSYAISWVRQAPGQGLEWMGGIIPIFGTANYAQKFQGRVTITADESTSTAYMELSSLRSEDTAVYYCARGAGFDAFDIWGQGTMVTVSSTSGQAGQHHHHHHGAYPYDVPDYAS
notes: as for B1

How the values were obtained:
SLAMF9 protein = SLAMF9 protein (UniProt Q96A28 19-236, limits assumed); test: phage clone on SLAMF9 protein
[1] = molecular target: T1, Fc Receptor-like 5 (FcRL5), full …; test: phage clone screening on cells
Outline: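 scFv phage clones were incubated with live 3T3 cells overexpressing full-length FcRL5, then detected with mouse anti-M13 mAb and PE-anti-mouse Ig by flow cytometry. 3T3 cells expressing FcRL1, 2, 3, 4 or 6 served as negative-control targets.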

[2] = molecular target: T2, FcRL4, overexpressed on 3T3 cells; test: phage clone on 3T3-FcRL4 cells
[3] = molecular target: T3, FcRL6, overexpressed on 3T3 cells; test: phage clone on 3T3-FcRL6 cells
[4] = molecular target: T4, FcRL2, overexpressed on 3T3 cells; test: phage clone on 3T3-FcRL2 cells

SLAMF9 protein, sequence (Q96A28 19-236 limits assumed): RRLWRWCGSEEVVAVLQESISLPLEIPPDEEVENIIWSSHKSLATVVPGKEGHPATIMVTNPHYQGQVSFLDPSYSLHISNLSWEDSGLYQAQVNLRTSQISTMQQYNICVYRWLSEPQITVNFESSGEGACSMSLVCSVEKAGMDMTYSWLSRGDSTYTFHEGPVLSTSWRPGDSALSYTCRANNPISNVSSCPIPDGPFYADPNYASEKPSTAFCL

Binder | binding result (SLAMF9 protein) | binding result [1] | binding result [2] | binding result [3] | binding result [4]
B1 | no binding | binds | no binding | no binding | no binding
B2 | no binding | binds | no binding | no binding | no binding
B3 | no binding | binds | no binding | no binding | no binding
B4 | no binding | binds | no binding | no binding | no binding
B5 | no binding | binds | no binding | no binding | no binding
B6 | no binding | binds | no binding | no binding | no binding
B7 | no binding | binds | no binding | no binding | no binding
B8 | no binding | binds | no binding | no binding | no binding

From patent publication US20210388081A1 (Memorial Sloan Kettering, published 2021)
